{
  "source": "patent US12508311B2",
  "about": "“Fusion protein, and preparation method and use thereof” (SUN YAT-SEN UNIVERSITY, priority 2021, dated 2025)",
  "key": {"[1]": {"system": "KRas protein in SW1116 (KRas G12D)", "experiment": "Western blot of KRas degradation in SW1116 cells", "assay_type": "cell-based", "from_the_text": "Cell lines used in this embodiment were SW1116 (KRas G12D), SW480 (KRas G12V) and H358 (KRas G12C), all of which came from ATCC and have item numbers of CCL-233, CCL-228 and CRL-5800 respectively. The treatment process of each cell was consistent with that described in the influence of administration time on degradation of KRas above."}, "HT29 cells": {"system": "HT29 cells", "experiment": "Flow cytometry of tumor cell targeting, HT29", "assay_type": "cell-based, human", "conditions": "tested as 60 nM TKD-Cy5, 1 hour, Lys 05 10 μM", "protocol": "Wherein, the protein C18 column (25 cm×10 mm) was used, with sample injection of 2×400 μL each time, and gradient elution was carried out for 30 minutes, 0.1% TFA (trifluoroacetic acid) solution to MeCN (acetonitrile): H2O (0.1% TFA)=70:30, and a flow rate was 4 mL/min. • (4) Target color tape peaks were collected, and the retention time of a labeled polypeptide was longer than that of an unlabeled polypeptide. • (5) The TKD-Cy5 molecule was diluted to 60 μM, and stored in a PBS solution, and kept in the dark at −20° C. 2. […] The cells were treated with corresponding drugs, namely, in the experimental groups, the cells were treated with 60 nM TKD-Cy5 coupling molecule, and in the control groups, the cells were treated with the Cy5 single molecule with corresponding concentration. The lysosome inhibitor Lys 05 with the final concentration of 10 μM was added into the control groups and the experimental groups at the same time, and the final volume of the culture solution in each well was 1 mL. […] The cells were resuspended with the PBS buffer solution, and centrifuged again, and the supernatant was discarded. The operation was repeated for three times. Finally, the cleaned cells were resuspended in 0.2 mL of PBS, wrapped with foil paper, and then analyzed on the flow cytometer (company: BECKMAN COULTER; model: Cytoflex), with the fluorescence channel of APC-A."}, "[2]": {"system": "KRas wild-type (HT29) colorectal cancer", "experiment": "In-vivo tumor formation experiment, HT29 subcutaneous tumor", "parameters": "species or system mice", "conditions": "seven times", "protocol": "(§1) • (1) Balb/c nude mice, female, 4 weeks to 5 weeks old, purchased from Guangdong Laboratory Animal Center and raised in Laboratory Animal Center of Sun Yat-sen University, were used in this experiment. […] After counting, 7.5 million HT29 and HCT116 cells were taken respectively, washed twice with PBS, centrifuged at 300 g for 5 minutes after fishing each washing, and collected. • (3) The cell dilution buffer solution having the composition of PBS: matrix glue (Corning Company)=1:1 was prepared to resuspend the cells. […] In the experiment, the administration volume was 150 μL, the administration frequency was once every three days at a fixed time, and the administration was continued for seven times. • (6) After the administration, each mouse was injected with 150 μL of tribromoethanol, and then killed by cervical dislocation. […]\n(§2) • (1) Balb/c nude mice, female, 4 weeks to 5 weeks old, purchased from Guangdong Laboratory Animal Center and raised in Laboratory Animal Center of Sun Yat-sen University, were used in this experiment. The experimental mice were divided into two groups, with five mice in each group, which were respectively a phosphate buffer solution (PBS) control group and a […]. • (2) The HT29 and HCT116 cells in the logarithmic phase were digested with pancreatin, the digestion was stopped with the complete culture solution, and then the cells were counted. […]"}, "[3]": {"system": "KRas mutant-type (HCT116) colorectal cancer", "experiment": "In-vivo tumor formation experiment, HCT116 subcutaneous tumor", "parameters": "species or system mice", "conditions": "seven times", "protocol": "as §1, §2"}, "HCT116 (KRas G13D)": {"system": "HCT116 (KRas G13D)", "experiment": "Cell clone formation experiment, HCT116", "conditions": "10 and 20 μg/mL"}, "[4]": {"conditions": "TKD 25 and 50 mg/kg intraperitoneal, once every three days, vs PBS"}},
  "data": [
    {"molecule": "TKD: fusion protein: tumour-cell-penetrating peptide BR2, anti-KRas nanobody VHH and lysosome recognition peptide CTM; SEQ ID NO.4 (protein) RAGLQFPVGRLLRRLLRDVQLQESGGGLVQAGGSLRLSCVASGRTFSTYPTGWFRQAPGKEREFVARINLSGGITNYADSVKGRFTISRDNAKNTVYLQMNSLKPEDTAVYYCGGGSTTWAGGIPTNFDYWGQGTQVTVSSGRKFERQKILDQRFFE", "values": [
      {"measurement": "degradation of mutated KRas protein (western blot)", "setting": "[1]", "value": "could induce the degradation of the KRas proteins in different mutation states, and the degradation effect was remarkable"},
      {"measurement": "entry into cells (flow cytometry, Cy5 fluorescence)", "setting": "HT29 cells", "value": "could specifically recognize and pass through the cell membrane to enter the colorectal cancer cells"},
      {"measurement": "inhibition of tumor growth (tumor weight)", "setting": "[2]; [4]", "value": "could significantly inhibit the growth"},
      {"measurement": "tumor growth inhibition, TKD-50 mg/kg group compared with TKD-25 mg/kg group", "setting": "[2]; intraperitoneal", "value": "had a better effect than the TKD-25 mg/kg group"},
      {"measurement": "inhibition of tumor growth (tumor weight)", "setting": "[3]; [4]", "value": "could significantly inhibit the growth"},
      {"measurement": "tumor growth inhibition, TKD-50 mg/kg group compared with TKD-25 mg/kg group", "setting": "[3]; intraperitoneal", "value": "had a better effect than the TKD-25 mg/kg group"},
      {"measurement": "inhibition of clone growth", "setting": "HCT116 (KRas G13D)", "value": "could significantly inhibit the growth"}
    ]}
  ]
}
